Measured values as given in the nanobody polyreactivity screen of Harvey et al. (2022).

assay: yeast display, Sf9 membrane polyspecificity reagent, FACS + sequencing; frameworks hold sequencing errors
How it was run: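 Nanobodies from a synthetic yeast display library (Saccharomyces cerevisiae BJ5465), induced 36–48 hours with galactose, were stained 1 hour at 4 °C with 10% biotinylated, detergent-solubilized Sf9 membrane reagent, enriched on streptavidin microbeads, then FACS-sorted. Anti-HA (expression) and streptavidin (reagent binding) fluorescence set low and high (top ~1%) gates. Polyreactivity labels come from the gate of origin. Genes were colony-PCR amplified, MiSeq 2 × 250 sequenced and filtered by CDR length.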

Question: With “QVQLVESGGGLVQAGGSLRLSCAASGITFYHYAMGWYRQAPGKERELVAAISSDDNTNYADSVKGRFTISRDNAKNTVYLQMNSLKPEDTAVYYCAAAPWYFYDQYFNAISFGYYYWGQGTQVTVSS” as the sequence, how does the “polyreactivity (PSR sort gate)” value read?
Answer: The value was “high polyreactivity”.

Question: For “QVQLVESGGGLVQAGGSLRLSCAASGITFYIYAMGWYRQAPGKERELVAAISDDGSTHYADSVKGRFTISRDNAKNTVYLQMNSLTPEDTAVYYCNADDDWFFDFFDYDYWGQGTQVTVSS”, which “polyreactivity (PSR sort gate)” value is on record?
Answer: Its value is “low polyreactivity”.

Question: With “QVQLVESGGGLVQAGGSLRLSCAASGITFYKYAKGWYRQAPGKERELVAAISRSGTTTYYADSVKGRFTISRDNAKNTVYLQMNSLKPEDTAVYYCNTVNWLTLNDRYYYWGQGTQVTVSS” as the sequence, how does the “polyreactivity (PSR sort gate)” value read?
Answer: Its value is “high polyreactivity”.

Question: For “QVQLVESGGGLVQAGGSLRLSCAASGITFYKYVMGWYRQAPGKERELVAAITYSGGSTYYADSVKGRFTISRDYAKNTVYLQMYSLKPEDTAVYYCAKRRPALRWIYYYWGQGTQVTVSS”, which “polyreactivity (PSR sort gate)” value is on record?
Answer: The value was “high polyreactivity”.

Question: For “QVQLVESGGGLVQAGGSLRLSCAASGITFYLYAMGWYRQAPGKERELVAAISRGGSTNYADSVKGRFTISRDNAKNTVYLQMNSLKPEDTAVYYCAAVDRYGFGYWGQGTQVTVSS”, which “polyreactivity (PSR sort gate)” value is on record?
Answer: Its value is “high polyreactivity”.

Question: Which “polyreactivity (PSR sort gate)” value does the source give for “QVQLVESGGGLVQAGGSLRLSCAASGITFYPYAMGWYRQAPGKERELVAAISWRSGSTNYADSVKGRFTISRDNAKNTVYLQMNSLKPEDTAVYYCNFDKVTSWYYYGYWGQGTQVTVSS” here?
Answer: Its value is “low polyreactivity”.

Question: With “QVQLVESGGGLVQAGGSLRLSCAASGITFYQYAMGWYRQAPGKERELVAGINSGGSTNYADSVKGRFTISRDNAKNTVYLQMNSLKPEDTAVYYCAAPWGWARRYRVYGGYYWGQGTQVTVSS” as the sequence, how does the “polyreactivity (PSR sort gate)” value read?
Answer: The value was “high polyreactivity”.

Question: With “QVQLVESGGGLVQAGGSLRLSCAASGITFYRKAMGWYRPAPGKEREFVAAINYGGSSTRYADSVKGRFTISRDYAKNTVYLQMNSLKPEDTAVYYCAVEKRYPRRRYDYWGQGTQVTVSS” as the sequence, how does the “polyreactivity (PSR sort gate)” value read?
Answer: Its value is “low polyreactivity”.

Question: For “QVQLVESGGGLVQAGGSLRLSCAASGITFYRNAMGWDRQAPGKERELVAAISSRGGRTYYADSVKGRFTISRDNAKNTVYVQMNSLKPEDTAVYYCAKGGKVGSTLEYDYWGQGTQVTVST”, which “polyreactivity (PSR sort gate)” value is on record?
Answer: Its value is “high polyreactivity”.

Question: With “QVQLVESGGGLVQAGGSLRLSCAASGITFYRNAMGWYRQAPGKERELVAAISRRGGITRYADSVKGRFTISRDNAKNTVYLQMNSLKPEDTAVYYCAVAVNGVSRIKYYYWGQGTQVTVSS” as the sequence, how does the “polyreactivity (PSR sort gate)” value read?
Answer: The value was “high polyreactivity”.

Question: For “QVQLVESGGGLVQAGGSLRLSCAASGITFYRYALGWYRQAPGKERELVAAISSSGGSTYYADSVKGRFTISRDNAKNTVYLQMNSLKPEDTAVYYCATDSLYDYWGQGTQVTVSS”, which “polyreactivity (PSR sort gate)” value is on record?
Answer: The value was “high polyreactivity”.

Question: Which “polyreactivity (PSR sort gate)” value does the source give for “QVQLVESGGGLVQAGGSLRLSCAASGITFYRYGMGWYRQAPGKARELVAAITYNGGGTYYADSVKGRFTISRDNAKNTVYLQMNSLKPEDTAVYYCNARYYRKYDYWGQGTQVTVSS” here?
Answer: The value was “high polyreactivity”.

Question: For “QVQLVESGGGLVQAGGSLRLSCAASGITFYRYGMGWYRQAPGKERELVAAITSRGGSTSYADSVKGRFTISRDNAKNTVYLQMNSLKPEDTAVYYCAAFYRRDYDYWGQGTQVTVSS”, which “polyreactivity (PSR sort gate)” value is on record?
Answer: The value was “high polyreactivity”.

Question: With “QVQLVESGGGLVQAGGSLRLSCAASGITFYRYTMGWYRQAPGKERELVAAIRSGGSTYYADSVKGRFTISRDNAKNTVYLQMNSLKPEDTAVYYCAAPYYRYNVPYYGGNGGDYWGQGTQVTVSS” as the sequence, how does the “polyreactivity (PSR sort gate)” value read?
Answer: Its value is “high polyreactivity”.

Question: With “QVQLVESGGGLVQAGGSLRLSCAASGITFYSYAMGWYRQAPGKERELVAAISSSGTTYYADSVKGRFTISRDNAKNTVYLQMNSLKPEDTAVYYCATDYSLGWYQDSDGGYQFDYWGQGTQVTVSS” as the sequence, how does the “polyreactivity (PSR sort gate)” value read?
Answer: Its value is “high polyreactivity”.

Question: For “QVQLVESGGGLVQAGGSLRLSCAASGITFYTNAMGWYRQAPGKERELVAAISSGDSTNYADSVKGRFTISRDNAKNTVYLQMNSLKPEDTAVYYCAKEATQLVWIGMDYWGQGTQVTVSS”, which “polyreactivity (PSR sort gate)” value is on record?
Answer: Its value is “low polyreactivity”.

Question: With “QVQLVESGGGLVQAGGSLRLSCAASGITFYVNAMGWYRQAPGKERELVAAITQSVDITSYADSVKGRFTISRDNAKNTVYLQMNSLKPEDTAVYYCATRGIPDDNARDYWGQGTQVTVSS” as the sequence, how does the “polyreactivity (PSR sort gate)” value read?
Answer: The value was “low polyreactivity”.
